Patent US20090255014A1 (HELMHOLTZ ZENTRUM F R INFEKTIONSFORSCHUNG, published 2009)

Target: T1, native Cpn10 of Oleispira antarctica (Oleispira antarctica, UniProt Q8KM31 1-97)
T1 construct: Co-chaperonin; also called co-chaperonin Cpn10; co-chaperonin
T1 sequence: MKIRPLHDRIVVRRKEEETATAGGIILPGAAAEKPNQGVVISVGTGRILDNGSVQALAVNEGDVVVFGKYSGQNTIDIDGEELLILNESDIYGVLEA
Experiment: conclusion from in vitro refolding of denatured mtMDH with Cpn10 and ATP
From the text: The behaviour of the stabilized single ring mutant led to the conclusion that at the low temperature, the co-chaperonin Cpn10 could bind even to the heptameric conformation, whereas at elevated temperature presumably Cpn10 could not be released from this heptameric single ring.

B1: stabilized single ring mutant Glu461Ala/Ser463Ala/Val464Ala of Cpn60 of O. antarctica (other)
chain: MAAKDVLFGDSARAKMLVGVNILADAVRVTLGPKGRNVVIEKSFGAPIITKDGVSVAREIELKDKFENMGAQMVKEVASQANDQAGDGTTTATVLAQAIISEGLKSVAAGMNPMDLKRGIDKATAAVVAAIKEQAQPCLDTKAIAQVGTISANADETVGRLIAEAMEKVGKEGVITVEEGKGLEDELDVVEGMQFDRGYLSPYFINNQEKMTVEMENPLILLVDKKIDNLQELLPILENVAKSGRPLLIVAEDVEGQALATLVVNNLRGTFKVAAVKAPGFGDRRKAMLQDLAILTGGQVISEELGMSLETADPSSLGTASKVVIDKENTVIVDGAGTEASVNTRVDQIRAEIESSTSDYDIEKLQERVAKLAGGVAVIKVGAGSEMEMKEKKDRVDDALHATRAAVEEGVVAGGGVALIRALSSVTVVGDNEDQNVGIALALRAMEAPIRQIAGNAGAAGAAVVDKVKSGTGSFGFNASTGEYGDMIAMGILDPAKVTRSSLQAAASIAGLMITTEAMVADAPVEEGAGGMPDMGGMGGMGGMPGMM
notes: also called triple mutant Glu461Ala/Ser463Ala/Val464Ala
  binding result: binds
